Consider two molecules from patent US20110294217, “DNA NICKING ENZYME FROM A HOMING ENDONUCLEASE THAT STIMULATES SITE-SPECIFIC GENE CONVERSION” (FRED HUTCHINSON CANCER RESEARCH CENTER, published 2011).

For data set [1], the target named is T1, I-AniI K227M/Q171K (catalytically inactive) (Aspergillus nidulans, UniProt P03880 P03880:235-488, F80K,L233K,Q171K,K227M).
T1 sequence: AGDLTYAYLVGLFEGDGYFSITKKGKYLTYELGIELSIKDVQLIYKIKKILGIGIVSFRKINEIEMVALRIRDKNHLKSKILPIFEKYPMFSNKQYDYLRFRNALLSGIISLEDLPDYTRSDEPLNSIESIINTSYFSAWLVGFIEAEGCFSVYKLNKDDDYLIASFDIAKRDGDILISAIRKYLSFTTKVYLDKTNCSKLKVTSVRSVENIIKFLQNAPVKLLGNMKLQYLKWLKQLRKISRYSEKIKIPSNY
As to the kind of experiment: ITC; catalytically inactive. How it is done:
(§1) Isothermal titration calorimetry (ITC) was used to determine the dissociation constants of native and nicking I-AniI binding to the optimal LIB4 DNA target site (FIG. 4E). Calorimetric experiments were conducted as described previously (Eastberg et al., Biochemistry 46:7215-25, 2007). […] This difference is primarily due to a +5.8 kcal/mol increase in enthalpy change upon nickase binding, implying that the nicking variant has lost contacts to the DNA target—presumably because a hydrogen bond formed by the K227 side chain to the DNA phosphate backbone (Scalley-Kim et al., J. Mol. Biol. 372:1305-1319, 2007) is eliminated.
(In ITC the heat of successive injections is recorded.)

Another data set addresses T2, I-AniI K227M nickase (Aspergillus nidulans, UniProt P03880 P03880:235-488, F80K,L233K,K227M).
T2 sequence: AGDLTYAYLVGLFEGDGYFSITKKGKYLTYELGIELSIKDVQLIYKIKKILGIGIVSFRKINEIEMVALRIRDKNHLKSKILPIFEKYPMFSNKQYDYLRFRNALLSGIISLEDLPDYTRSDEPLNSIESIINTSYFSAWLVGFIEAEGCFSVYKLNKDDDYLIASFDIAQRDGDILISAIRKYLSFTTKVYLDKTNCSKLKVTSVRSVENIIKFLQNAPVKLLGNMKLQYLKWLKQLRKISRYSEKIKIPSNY
As to the kind of experiment: ITC; +1.4 kcal/mol in binding free energy vs wild type. How it is done: as §1

For a further data set, the target named is T3, I-AniI HyperK (in cell) (Aspergillus nidulans, UniProt P03880 P03880:235-488, F80K,L232K).
T3 sequence: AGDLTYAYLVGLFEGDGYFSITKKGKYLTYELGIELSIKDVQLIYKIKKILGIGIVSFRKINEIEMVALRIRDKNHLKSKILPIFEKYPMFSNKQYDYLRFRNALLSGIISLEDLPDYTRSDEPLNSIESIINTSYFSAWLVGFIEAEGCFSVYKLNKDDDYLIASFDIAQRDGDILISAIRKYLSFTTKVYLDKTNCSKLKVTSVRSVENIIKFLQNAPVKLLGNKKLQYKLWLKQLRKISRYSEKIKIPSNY
Kind of data set: cell_activity; cis recombination, 293T; reporter alone 5.10. The note with it: tags: N-terminal HA and NLS. The procedure:
(§2) Cells were analyzed on an FACScan® flow cytometer (Becton Dickinson); 75,000 events were gated for linear side and forward scatter to identify cells; and GFP fluorescence was analyzed.
(§3) Reporter assays were developed to measure either intramolecular recombination in cis, or recombination of a chromosomal target mediated by a donor in trans. The assay for recombination in cis used a reporter, DR-GFPAni, based on the direct repeat recombination reporter plasmid (DR)-GFP (Pierce et al., Genes Dev. 13:2633-2638, 1999), which was designed to score only gene conversion, and not repair mediated by NHEJ or single-strand annealing. […] Transfection efficiency was consistently greater than 90%. […] The fraction of GFP⁺ cells ranged from a background of about 3 to about 5% for cells transfected with the reporter alone, up to about 50% in cells transfected simultaneously with the reporter plasmid and an I-AniI Y2 cleavase expression plasmid (FIG. 8C and FIG. 10). […] Expression of the I-AniI nickase stimulated recombination 2.5-fold (FIG. 8C), or approximately one-fourth as efficiently as the I-AniI cleavase.
(§4) ¹The two different series were performed as described in this example.

Another data set concerns the target T4, I-AniI Y2 (in cell) (Aspergillus nidulans, UniProt P03880 P03880:235-488, F13Y,F80K,S111Y,L232K).
T4 sequence: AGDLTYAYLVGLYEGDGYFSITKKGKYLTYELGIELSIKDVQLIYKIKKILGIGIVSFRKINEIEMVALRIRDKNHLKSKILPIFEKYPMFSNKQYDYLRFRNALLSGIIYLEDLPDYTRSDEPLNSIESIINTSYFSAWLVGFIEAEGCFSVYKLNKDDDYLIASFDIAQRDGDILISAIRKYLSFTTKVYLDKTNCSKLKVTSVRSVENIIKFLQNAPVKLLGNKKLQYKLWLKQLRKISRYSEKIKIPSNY
Described as above. The note with it: tags: N-terminal HA and NLS. The procedure:
as §2, §3, §4

In data set [2] the target is T5, I-AniI Y2 K227M nickase (in cell) (Aspergillus nidulans, UniProt P03880 P03880:235-488, F13Y,F80K,S111Y,L232K,K227M).
T5 sequence: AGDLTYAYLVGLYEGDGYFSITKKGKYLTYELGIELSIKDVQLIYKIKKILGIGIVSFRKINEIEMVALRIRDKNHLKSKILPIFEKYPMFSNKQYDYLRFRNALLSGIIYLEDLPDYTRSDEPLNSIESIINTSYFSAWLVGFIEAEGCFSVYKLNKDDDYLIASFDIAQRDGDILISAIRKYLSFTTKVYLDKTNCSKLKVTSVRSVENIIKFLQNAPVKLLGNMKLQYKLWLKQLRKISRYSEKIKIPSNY
The data set is described as above. The note with it: tags: N-terminal HA and NLS. How it is done: as §2, §3, §4

B1: I-AniI Lib4 target site (dsDNA)
DNA 1: TGAGGAGGTTACTCTGTTA
DNA 2: TAACAGAGTAACCTCCTCA
As usually defined, the Kd is the equilibrium constant for the complex coming apart. High values mean weaker binding, low ones tighter binding. B1: the results for the Kd (in data set [1]; in the data set with I-AniI K227M nickase) were 62 nM and 71 nM, respectively.

B2: I-AniI native target site (19 bp) (dsDNA)
DNA 1: TTACAGAGAAACCTCCTCA
DNA 2: TGAGGAGGTTTCTCTGTAA
For the molecule B2, the results for the activity (with I-AniI HyperK (in cell); with I-AniI Y2 (in cell); in data set [2]) were 11 % GFP+, 47.5 % GFP+ and 12.4 % GFP+, respectively.
